The chains are these.
B1: anti-Gc (ectodomain) 변이체 Fab 클론 Gc-3-1E12 (Fab, V domains shown)
VH: EVQLVESGGGLVQPGGSLRLSCAASGFTFSDYAMHWVRQAPGKGLEWVSGISSSGGSTFYADSVKGRFTISRDNSKNTLYLQMNSLRAEDTAVYYCAKWEWGYQERKWAFDLWGQGTLVTVSS
VL: DIQMTQSPSSLSASVGDRVTITCRASQSISNYLNWYQQKPGKAPKLLIYATSSLQSGVPSRFSGSGSGTDFTLTISSLQPEDFATYYCQQTYSFPWTFGQGTKVEIK
B2: anti-Gc (ectodomain) 변이체 Fab 클론 Gc-4-1C8 (Fab, V domains shown)
VH: EVQLVESGGGLVQPGGSLRLSCAASGFTFSDYAMNWVRQAPGKGLEWVSSISSSGSSTYYADSVKGRFTISRDNSKNTLYLQMNSLRAEDTAVYYCAKVKWRQSTSEYFDYWGQGTLVTVSS
VL: DIQMTQSPSSLSASVGDRVTITCRASQTISNYLNWYQQKPGKAPKLLIYAASTLQSGVPSRFSGSGSGTDFTLTISSLQPEDFATYYCQQSYSFPWTFGQGTKVEIK
B3: anti-Gc (ectodomain) 변이체 Fab 클론 Gc-b3-1E2 (Fab, V domains shown)
VH: EVQLVESGGGLVQPGGSLRLSCAASGFTFSNYAMNWVRQAPGKGLEWVSAISGSGSSTYYADSVKGRFTISRDNSKNTLYLQMNSLRAEDTAVYYCAKQFYVGQWLSGWFDVWGQGTLVTVSS
VL: DIQMTQSPSSLSASVGDRVTITCRASQSISNYLNWYQQKPGKAPKLLIYATSRLQSGVPSRFSGSGSGTDFTLTISSLQPEDFATYYCQQSYSFPWTFGQGTKVEIK

For orientation: EC50 means the concentration that produces a half-maximal response. Read a low EC50 as greater potency.

This assay has as its target SFTSV Gc 변이체 (Severe Fever with Thrombocytopenia Syndrome Virus).
B1 had an EC50 of 6 nM.

B2 gave an EC50 of 157 nM. This EC50 is about 26-fold higher than that of the molecule before.

As for B3, the EC50 turned out to be 89 nM.

The record behind these values is KR20230076376A.
